We go through 1 substance from patent US9303249B2, “High concentration α-glucosidase compositions for the treatment of Pompe disease” (Amicus Therapeutics, Inc., priority 2012, dated 2016).

A short description of this data set: Solubility of Lumizyme® in the presence of 1-DNJ-HCl and excipients (Example 12). It counts as physicochemical. The method, then:
A vial of Lumizyme® containing 52.5 mg protein, 210 mg mannitol, 0.5 mg polysorbate 80, 9.9 mg Na2HPO4×7H2O, and 31.2 mg NaH2PO4×H2O was dissolved in a minimal volume of water (1 mL added) yielding 1.2 mL of protein solution. Five 240-μL aliquots (each containing 10.5 mg protein) were transferred to Amicon Ultra 0.5 mL 30 kDa cutoff centrifugal filter devices and centrifuged for 10 min at 14,000×g in an Eppendorf centrifuge to obtain about 50 μL of retentate.
The original excipients present in the composition, i.e., mannitol and polysorbate 80 were exchanged for new excipients to test protein solubility (keeping the same buffer conditions). The following excipient solutions were prepared for the exchange using the original phosphate buffer:
For exchanging excipients, 5.2 mg Na2HPO4 and 27.1 mg NaH2PO4 were dissolved in 10.3 mL water to prepare the washing/excipient exchange phosphate buffer of approximately 26 mM. A volume of 8 mL of the buffer for excipient exchange was supplemented with 160 mg/mL of the small molecule ligand (to prepare excipient 1, 3, 4 and 5 solutions), while 2 mL was supplemented with 32 mg/mL ligand for excipient 2 (100 mM Arginine). Each of the excipients were dissolved in 2 mL of this buffer at the concentrations listed above.
An excipient solution was added to each separate filter device to achieve a total volume of 0.5 mL. Each filter device was centrifuged for 15 min at 14,000×g in a bench top Eppendorf centrifuge to retain approximately 25 μL. The units were re-filled with the same excipient solution to 0.5 mL and centrifuged again (this process was repeated 2 times). This procedure efficiently replaced mannitol and polysorbate 80 with excipients described above, diluting the original constituents by about 1:1000. All filtrates for each excipient were collected and examined for any protein leaks through the filter.
Each centrifugal filter device was inverted in a clean tube, and the concentrated protein solution was collected from each filter device by centrifugation for 2 min at 1000×g. The volume of each sample was determined (66 μL, corresponding to a target protein concentration of 160 mg/mL), and it was confirmed that no visible precipitate was observable in each sample. Samples were transferred back to their respective filter devices and centrifuged for an additional 5 min Samples were then collected by inversion of the filters into clean tubes and centrifuging for 2 min at 1000×g to yield about 37 μL of retentate (corresponding to >280 mg/mL protein based on a total initial concentration of 10.5 mg protein).
The samples were vortexed and incubated for 1 hr at room temperature to equilibrate liquid and solid phases followed by centrifugation for 10 min at 14,000×g. Again, no visible precipitate was observed. Two-three 10 μL aliquots were taken from the supernatant of each sample (depending on available volume of the liquid phase), and diluted 1:1000 in two steps. Protein concentration was measured by UV absorbance at 280 nm, and the maximum protein solubility was calculated according to a highly reproducible calibration curve. The calibration curve was prepared by dissolving 6.8 mg of Myozyme® (alglucosidase alpha) lyophilized powder (containing 1.16 mg protein) in 1.16 mL of water followed by a serial dilution in deionized water. Absorbance was measured at 280 nm in a 1 cm light-pass quartz semi-micro cuvette using 0.5 mL aliquots.

On to “Lumizyme®: alglucosidase alfa, recombinant human acid α-glucosidase from Genzyme Corporation”, for which the Protein solubility by setting is: (Arginine 100 mM, 1-DNJ-HCl 32 mg/mL) 201 mg/mL; (Arginine + Glutamic acid 50 mM + 50 mM, 1-DNJ-HCl 160 mg/mL) 242 mg/mL; (Gamma-cyclodextrin 10% (w/v), 1-DNJ-HCl 160 mg/mL) 114 mg/mL; (PEG400 5% (w/v), 1-DNJ-HCl 160 mg/mL) 158 mg/mL; (Proline 250 mM, 1-DNJ-HCl 160 mg/mL) 195 mg/mL.
